From patent publication US20140087995A1 (published 2014)
Numbered stars: 1 amine (or outer) side, 2 acyl side, 3 side chain; on linkers, the order of the positions; unused ones are H or OH. Bridge positions count the residues as written; N and C are the ends. Side chains are listed from the residue outwards. Ends that are not written are not given here. * marks the point of attachment. C20 diacid = O=C(O)CCCCCCCCCCCCCCCCCCC(=O)*; γGlu = O=C(O)[C@H](CCC(=O)[*:2])N[*:1]; AEEA = NCCOCCOCC(=O)O

How the values were obtained:
rat calcitonin receptor [1] = target: T1, rat calcitonin receptor (rat, UniProt P32214 25-516); assay: SPA competition with 125I-calcitonin, membranes with rat calcitonin receptor (Assay VIII)
T1 construct: whole, on cells; Used as membranes prepared from the transfected cells; also called rCTR; rCT
T1 sequence (looked up): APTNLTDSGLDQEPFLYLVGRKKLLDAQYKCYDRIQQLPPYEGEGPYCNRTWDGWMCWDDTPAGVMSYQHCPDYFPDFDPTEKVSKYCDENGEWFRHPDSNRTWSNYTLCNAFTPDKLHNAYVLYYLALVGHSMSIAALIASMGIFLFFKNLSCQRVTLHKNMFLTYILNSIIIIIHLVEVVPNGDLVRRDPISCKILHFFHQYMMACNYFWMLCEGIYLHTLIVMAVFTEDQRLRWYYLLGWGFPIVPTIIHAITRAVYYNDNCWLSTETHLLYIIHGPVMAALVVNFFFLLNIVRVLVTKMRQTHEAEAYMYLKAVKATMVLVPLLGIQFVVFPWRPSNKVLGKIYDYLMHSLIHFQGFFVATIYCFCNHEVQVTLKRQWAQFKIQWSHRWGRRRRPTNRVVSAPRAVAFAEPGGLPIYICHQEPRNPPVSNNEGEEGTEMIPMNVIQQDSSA

rat calcitonin receptor [2] = target: T1, rat calcitonin receptor; assay: ratio of binding IC50 at rat calcitonin receptor to IC50 at rat amylin receptor (reference)
[3] = target: T2, human calcitonin receptor (human, UniProt P30988 25-474); assay: ratio of binding IC50 at human calcitonin receptor to IC50 at human amylin receptor (reference)
T2 construct: whole, on cells; Used as membranes prepared from the transfected cells; also called hCTR; hCT
T2 sequence (looked up): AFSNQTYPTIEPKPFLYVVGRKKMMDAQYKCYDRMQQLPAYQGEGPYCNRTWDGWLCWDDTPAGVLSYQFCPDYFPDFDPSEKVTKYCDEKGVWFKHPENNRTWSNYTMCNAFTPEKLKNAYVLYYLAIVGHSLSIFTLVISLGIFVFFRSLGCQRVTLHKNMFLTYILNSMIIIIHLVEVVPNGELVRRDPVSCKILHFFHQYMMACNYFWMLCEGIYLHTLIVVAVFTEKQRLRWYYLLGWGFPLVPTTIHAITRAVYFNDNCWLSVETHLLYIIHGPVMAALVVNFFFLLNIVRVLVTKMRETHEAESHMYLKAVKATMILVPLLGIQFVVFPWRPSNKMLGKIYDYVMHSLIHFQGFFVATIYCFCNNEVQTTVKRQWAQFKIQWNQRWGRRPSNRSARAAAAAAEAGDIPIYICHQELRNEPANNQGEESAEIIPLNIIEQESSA
Procedure: The resulting pellet was resuspended, homogenized and centrifuged (20.000 rpm, 15 min) in a buffer containing 20 mM Na-HEPES and 0.1 mM EDTA (pH 7.4, buffer 2). The resulting pellet was resuspended in buffer 2 and protein concentration was measured (BCA protein Assay, Pierce). The homogenate was kept cold during the whole procedure. The membranes were kept at −80° C. until use. The assay was performed in a 384 well Optiplate (PerkinElmer) in a total volume of 40 ul. Membranes were mixed with SPA beads. Final concentration of membranes 35 ng/μL final and SPA beads was 0.05 mg/well. Test-compounds were dissolved in DMSO and further diluted in assay buffer (50 mM Hepes, pH 7.4, 1 mM CaCl2, 5 mM MgCl₂, 0.1% OA and 0.02% Tween20). […] The final mixture was incubated with shaking at 400 rpm for 120 min at 25° C. prior to centrifugation (1500 rpm, 10 min). Samples were analyzed on TopCounter™ (Packard). The IC₅₀ was calculated using (one site binding competition analysis) GraphPad Prism5 as a measure of receptor affinity.
Membranes were prepared in the following way; the cells were rinsed with PBS and incubated with Versene for approximately 5 min before harvesting. The cells were flushed with PBS and the cell-suspension was centrifuged for 5 min at 1000 rpm. Cells were homogenized (Ultrathurrax) in a buffer containing 20 mM Na-HEPES and 10 mM EDTA (pH 7.4) and centrifuged at 20.000 rpm for 15 min. The resulting pellet was resuspended, homogenized and centrifuged (20.000 rpm, 15 min) in a buffer containing 20 mM Na-HEPES and 0.1 mM EDTA (pH 7.4, buffer 2). The resulting pellet was resuspended in buffer 2 and protein concentration was measured (BCA protein Assay, Pierce). The homogenate was kept cold during the whole procedure. The membranes were kept at −80° C. until use. Assay was performed in a 384 well Optiplate (PerkinElmer) in a total volume of 40 ul. Membranes were mixed with SPA beads.

| Binder | IC50 (rat calcitonin receptor [1]) | Ratio rCT/rAmylin binding (rat calcitonin receptor [2]) | Ratio hCT/hAmylin binding [3] |
| --- | --- | --- | --- |
| K([AEEA-γGlu-C20 diacid])CNTATCATQRLAAFLRHSSPNFGAIPSSTPVGSNTY-NH2 (disulfide 2-7; N-terminus assumed; SMILES CC[C@H](C)[C@H](NC(=O)[C@H](C)NC(=O)CNC(=O)[C@H](Cc1ccccc1)NC(=O)[C@H](CC(N)=O)NC(=O)[C@@H]1CCCN1C(=O)[C@H](CO)NC(=O)[C@H](CO)NC(=O)[C@H](Cc1c[nH]cn1)NC(=O)[C@H](CCCNC(=N)N)NC(=O)[C@H](CC(C)C)NC(=O)[C@H](Cc1ccccc1)NC(=O)[C@H](C)NC(=O)[C@H](C)NC(=O)[C@H](CC(C)C)NC(=O)[C@H](CCCNC(=N)N)NC(=O)[C@H](CCC(N)=O)NC(=O)[C@@H](NC(=O)[C@H](C)NC(=O)[C@@H]1CSSC[C@H](NC(=O)[C@@H](N)CCCCNC(=O)COCCOCCNC(=O)CC[C@H](NC(=O)CCCCCCCCCCCCCCCCCCC(=O)O)C(=O)O)C(=O)N[C@@H](CC(N)=O)C(=O)N[C@@H]([C@@H](C)O)C(=O)N[C@@H](C)C(=O)N[C@@H]([C@@H](C)O)C(=O)N1)[C@@H](C)O)C(=O)N1CCC[C@H]1C(=O)N[C@@H](CO)C(=O)N[C@@H](CO)C(=O)N[C@H](C(=O)N1CCC[C@H]1C(=O)N[C@H](C(=O)NCC(=O)N[C@@H](CO)C(=O)N[C@@H](CC(N)=O)C(=O)N[C@H](C(=O)N[C@@H](Cc1ccc(O)cc1)C(N)=O)[C@@H](C)O)C(C)C)[C@@H](C)O, Analogue of human amylin; disulfide and C-terminal amide as told for h-amylin; also called compound 72) | 221 nM | 259 | 247 |
| K([AEEA-γGlu-C20 diacid])CNTATCATQRLARFLRHSSPNFGAIPSSTNVGSNTY-NH2 (disulfide 2-7; N-terminus assumed; SMILES CC[C@H](C)[C@H](NC(=O)[C@H](C)NC(=O)CNC(=O)[C@H](Cc1ccccc1)NC(=O)[C@H](CC(N)=O)NC(=O)[C@@H]1CCCN1C(=O)[C@H](CO)NC(=O)[C@H](CO)NC(=O)[C@H](Cc1c[nH]cn1)NC(=O)[C@H](CCCNC(=N)N)NC(=O)[C@H](CC(C)C)NC(=O)[C@H](Cc1ccccc1)NC(=O)[C@H](CCCNC(=N)N)NC(=O)[C@H](C)NC(=O)[C@H](CC(C)C)NC(=O)[C@H](CCCNC(=N)N)NC(=O)[C@H](CCC(N)=O)NC(=O)[C@@H](NC(=O)[C@H](C)NC(=O)[C@@H]1CSSC[C@H](NC(=O)[C@@H](N)CCCCNC(=O)COCCOCCNC(=O)CC[C@H](NC(=O)CCCCCCCCCCCCCCCCCCC(=O)O)C(=O)O)C(=O)N[C@@H](CC(N)=O)C(=O)N[C@@H]([C@@H](C)O)C(=O)N[C@@H](C)C(=O)N[C@@H]([C@@H](C)O)C(=O)N1)[C@@H](C)O)C(=O)N1CCC[C@H]1C(=O)N[C@@H](CO)C(=O)N[C@@H](CO)C(=O)N[C@H](C(=O)N[C@@H](CC(N)=O)C(=O)N[C@H](C(=O)NCC(=O)N[C@@H](CO)C(=O)N[C@@H](CC(N)=O)C(=O)N[C@H](C(=O)N[C@@H](Cc1ccc(O)cc1)C(N)=O)[C@@H](C)O)C(C)C)[C@@H](C)O, Analogue of human amylin; disulfide and C-terminal amide as told for h-amylin; also called compound 82) | 143 nM | 87 | 140 |
| K([AEEA-γGlu-C20 diacid])CNTATCATQRLARFLRHSSPNFGAIPSSTPVGSNTY-NH2 (disulfide 2-7; N-terminus assumed; SMILES CC[C@H](C)[C@H](NC(=O)[C@H](C)NC(=O)CNC(=O)[C@H](Cc1ccccc1)NC(=O)[C@H](CC(N)=O)NC(=O)[C@@H]1CCCN1C(=O)[C@H](CO)NC(=O)[C@H](CO)NC(=O)[C@H](Cc1c[nH]cn1)NC(=O)[C@H](CCCNC(=N)N)NC(=O)[C@H](CC(C)C)NC(=O)[C@H](Cc1ccccc1)NC(=O)[C@H](CCCNC(=N)N)NC(=O)[C@H](C)NC(=O)[C@H](CC(C)C)NC(=O)[C@H](CCCNC(=N)N)NC(=O)[C@H](CCC(N)=O)NC(=O)[C@@H](NC(=O)[C@H](C)NC(=O)[C@@H]1CSSC[C@H](NC(=O)[C@@H](N)CCCCNC(=O)COCCOCCNC(=O)CC[C@H](NC(=O)CCCCCCCCCCCCCCCCCCC(=O)O)C(=O)O)C(=O)N[C@@H](CC(N)=O)C(=O)N[C@@H]([C@@H](C)O)C(=O)N[C@@H](C)C(=O)N[C@@H]([C@@H](C)O)C(=O)N1)[C@@H](C)O)C(=O)N1CCC[C@H]1C(=O)N[C@@H](CO)C(=O)N[C@@H](CO)C(=O)N[C@H](C(=O)N1CCC[C@H]1C(=O)N[C@H](C(=O)NCC(=O)N[C@@H](CO)C(=O)N[C@@H](CC(N)=O)C(=O)N[C@H](C(=O)N[C@@H](Cc1ccc(O)cc1)C(N)=O)[C@@H](C)O)C(C)C)[C@@H](C)O, Analogue of human amylin; disulfide and C-terminal amide as told for h-amylin; also called compound 64) | 128 nM | 64.7 | 126 |
| K([AEEA-γGlu-C20 diacid])CNTATCATQRLANFLRHSSPNFGAIPSSTNVGRNTY-NH2 (disulfide 2-7; N-terminus assumed; SMILES CC[C@H](C)[C@H](NC(=O)[C@H](C)NC(=O)CNC(=O)[C@H](Cc1ccccc1)NC(=O)[C@H](CC(N)=O)NC(=O)[C@@H]1CCCN1C(=O)[C@H](CO)NC(=O)[C@H](CO)NC(=O)[C@H](Cc1c[nH]cn1)NC(=O)[C@H](CCCNC(=N)N)NC(=O)[C@H](CC(C)C)NC(=O)[C@H](Cc1ccccc1)NC(=O)[C@H](CC(N)=O)NC(=O)[C@H](C)NC(=O)[C@H](CC(C)C)NC(=O)[C@H](CCCNC(=N)N)NC(=O)[C@H](CCC(N)=O)NC(=O)[C@@H](NC(=O)[C@H](C)NC(=O)[C@@H]1CSSC[C@H](NC(=O)[C@@H](N)CCCCNC(=O)COCCOCCNC(=O)CC[C@H](NC(=O)CCCCCCCCCCCCCCCCCCC(=O)O)C(=O)O)C(=O)N[C@@H](CC(N)=O)C(=O)N[C@@H]([C@@H](C)O)C(=O)N[C@@H](C)C(=O)N[C@@H]([C@@H](C)O)C(=O)N1)[C@@H](C)O)C(=O)N1CCC[C@H]1C(=O)N[C@@H](CO)C(=O)N[C@@H](CO)C(=O)N[C@H](C(=O)N[C@@H](CC(N)=O)C(=O)N[C@H](C(=O)NCC(=O)N[C@@H](CCCNC(=N)N)C(=O)N[C@@H](CC(N)=O)C(=O)N[C@H](C(=O)N[C@@H](Cc1ccc(O)cc1)C(N)=O)[C@@H](C)O)C(C)C)[C@@H](C)O, Analogue of human amylin; disulfide and C-terminal amide as told for h-amylin; also called compound 78) | 90.6 nM | 69.9 | 60.7 |
